B1: HIV-2 CA N-terminal domain (CA^N) (domain or fragment)
chain: not shown
B2: FIV CA N-terminal domain (CA^N) (domain or fragment)
chain: PIQTVNGVPQYVALDPKMVSIFMEKAREGLGGEEVQLWFTAFSANLTPTDMATLIMAAPGCAADKEILDESLKQLTAEYDRTHPPDAPRPLPYFTAAEIMGIGLTQEQQAEARFAPARMQCRAWYLEALGKLAAIKAKS

How the values were obtained:
[1] = molecular target: CPSF6_(313–327) peptide (cleavage and polyadenylation specific factor 6, residues 313–327) (UniProt Q16630-2 313-327); experiment: ITC
[2] = molecular target: CPSF6_(313–327) peptide (cleavage and polyadenylation specific factor 6, residues 313–327) (UniProt Q16630-2 313-327, N-terminal His tag omitted; strain not given, isolate Petaluma taken; CA residues 1-139 by alignment to HIV-1 CA 1-146); experiment: ITC

Row | Binder | Kd [1] [µM] | Kd [2] [µM]
1 | B1 | 350 | –
2 | B2 | – | 242
